This series has as its target Botulinum neurotoxin type A light chain (BoNT/A-rLc) (UniProt P0DPI1).

In general, Kd refers to a measure of binding affinity in units of concentration. Low readings indicate a tighter complex, high ones a looser complex. “AGCAGCACAGAGGTCAGATGNNNNNNNNNNNNNNNNNNNNNNNNNNNNNNNNNNNNNNNNNNNNNNNNNNNNNNNNNNNNCCTATGCGTGCTACCGTGAA [round 1 enriched aptamer pool (M-SELEX)]” yielded a Kd of 33 nM.

Source of the values: US20090170718.
